Laboratory results taken from patent US20120093789, “Methods of Modulating Smooth Muscle Cell Proliferation and Differentiation” (published 2012).

T1: SRF (serum response factor) (UniProt Q9JM73 Q9JM73:1-504)
T1 sequence: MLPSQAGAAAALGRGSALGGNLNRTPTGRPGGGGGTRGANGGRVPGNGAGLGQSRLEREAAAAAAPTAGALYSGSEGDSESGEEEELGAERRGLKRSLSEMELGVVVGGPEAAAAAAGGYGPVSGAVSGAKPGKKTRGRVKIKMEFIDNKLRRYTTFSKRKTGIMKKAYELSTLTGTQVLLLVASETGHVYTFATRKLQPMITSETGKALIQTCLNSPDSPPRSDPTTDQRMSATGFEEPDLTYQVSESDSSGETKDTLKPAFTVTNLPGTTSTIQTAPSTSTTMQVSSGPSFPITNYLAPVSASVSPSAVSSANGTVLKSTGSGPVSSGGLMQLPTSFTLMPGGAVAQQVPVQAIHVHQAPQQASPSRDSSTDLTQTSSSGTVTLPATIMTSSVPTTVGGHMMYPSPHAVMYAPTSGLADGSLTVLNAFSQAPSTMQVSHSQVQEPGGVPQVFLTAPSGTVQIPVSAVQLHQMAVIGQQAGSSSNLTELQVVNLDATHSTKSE


Legend:
[1] = target: T1, SRF (serum response factor); test: EMSA; radiolabeled probe; cold WT competition
[2] = target: T1, SRF (serum response factor); test: competition; cold mutant competitor; competition with WT or mutant probe indicates specificity of band

Row | Binder | binding result [1] | binding result [2]
1 | miR-143/145 enhancer SRF site (CArG) WT (dsDNA) DNA 1: GGGAGCAGCCTTGCCATATAAGGGCAGG DNA 2: CCTGCCCTTATATGGCAAGGCTGCTCCC | binds | 
2 | miR-143/145 enhancer SRF site mutant (dsDNA) DNA 1: GGGAGCAGCCTTGCTACCGAAGGGCAGG DNA 2: CCTGCCCTTCGGTAGCAAGGCTGCTCCC |  | no binding
